Reference: article PMC314469, “Protein Interaction Networks by Proteome Peptide Scanning” (PLoS Biology, 2004)

T1: Myo5 SH3 (MYO5_YEAST), Q04439
T1 chain: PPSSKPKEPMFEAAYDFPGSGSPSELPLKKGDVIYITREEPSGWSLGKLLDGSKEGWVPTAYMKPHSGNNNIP


Biological target: T1, Myo5 SH3 (MYO5_YEAST), Q04439
Experiment: SPOT array

| normalised SPOT signal, Boehringer light units (BLU); mean over the file's lines of this peptide | Binder |
| --- | --- |
| 467 | SPSTMDFPKLPSFQ [YPL089C 234-247] |
| 153 | VFSLMNSPAYPDVQ [YIL001W 264-277] |
| 130 | VFGTYLGPDAPLSK [YMR272C 367-380] |
| 259 | VAKSYGFPVPPKVN [YMR290C 473-486] |
| 504 | TLKKFVLPSLPRKN [YOR034C 339-352] |
| 121 | TEEILPTPVQPGGH [YOL070C 304-317] |
| 188 | TFRDMDLPQHPVIH [YLR030W 45-58] |
| 150 | VEVIMHSPSDPEYA [YML117W 995-1008] |
| 127 | TAWDMVPPYSPLSE [YPR090W 8-21] |
| 186 | VARPLSVPGSPRDL [YLR258W 646-659] |
| 14.9 | VELHFPKPEDPASI [YMR246W 254-267] |
| 69.2 | SWAVLPVPGGPVMY [YJL195C 85-98] |
| 829 | VPDSYKPPKNPIVF [YDR058C 17-30] |
| 296 | VLTKMNAPQKPEDI [YCR004C 46-59] |
| 132 | VFSSLRDPVIPIKL [YGL195W 2560-2573] |
| 148 | TPTHHHIPHIPNQN [YPR065W 331-344] |
| 158 | TPTPHPHPHTPHPH [YHR217C 42-55] |
| 357 | SWRSLTKPKIPLYK [YMR287C 119-132] |
| 81.8 | TPINFVFPNLPLEH [YHR007C 237-250] |
| 138 | VPAILMTPISPRSL [YPL188W 282-295] |

| normalised SPOT signal, Boehringer light units (BLU); mean over the file's lines of this peptide | Binder |
| --- | --- |
| 30.6 | VAWSHDSPKPPSDR [YHR163W 199-212] |
| 240 | VAVPFTLPVIPYDL [YBR223C 517-530] |
| 1640 | VFLRLISPTRPSLE [YOR249C 40-53] |
| 233 | VLGVLNVPLPPQTR [YGL197W 857-870] |
| 315 | TAAELQAPPPPPSS [YPL004C 14-27] |
| 135 | SPVPLGSPRGPLPV [YLR163C 237-250] |
| 224 | TWKMHLWPVSPPQL [YLR039C 34-47] |
| 4830 | VAPGLWFPNSPPPL [YPL128C 101-114] |
| 565 | VFKFLFHPVTPSHF [YJL005W 768-781] |
| 119 | TLHELGVPITPIAF [YOR184W 245-258] |
| 156 | TPSNMGSPGSPVNV [YOL148C 21-34] |
| 252 | TLPPLSSPMNPNGH [YDR096W 584-597] |
| 290 | TEDGFVIPALPAAV [YPR190C 407-420] |
| 148 | VLKNLPTPGEPFNF [YML131W 8-21] |
| 175 | TPMDFPEPVGPLAI [YPL154C 366-379] |
| 227 | TFSIYSIPSKPGES [YPL100W 474-487] |
| 413 | TLRSMIPPFTPQLD [YGR092W 484-497] |
| 123 | SPVNLLKPFNPTLP [YJL050W 730-743] |
| 287 | TPYQLLSPILPVLL [YBR136W 679-692] |
| 320 | VLSKFIKPKNPSLV [YPL226W 187-200] |

| normalised SPOT signal, Boehringer light units (BLU); mean over the file's lines of this peptide | Binder |
| --- | --- |
| 25800 | TPPPPPLPSVLSS [YNL271C 1302-1314] |
| 168 | VPDQLLTPLQPYTI [YJL127C 32-45] |
| 77.7 | TAPIHSTPKPPPND [YHR182W 732-745] |
| 180 | VAGYFVIPHTPMPS [YOR378W 217-230] |
| 236 | VEPEWYLPILPMIL [YNL088W 813-826] |
| 290 | VLKGFYSPSAPSYD [YOR029W 22-35] |
| 505 | SWLTMLPPMAPLLS [YMR158W-A 93-106] |
| 220 | VLFNLDHPMVPENL [YAL018C 292-305] |
| 18 | TLATLTEPKLPKSY [YOL111C 18-31] |
| 57.4 | VLEAYNVPTPPRLE [YLR410W 284-297] |
| 164 | TLEWLLTPYTPGDD [YLR422W 982-995] |
| 562 | VLIKFVIPVYPSLP [YGR099W 37-50] |
| 156 | VLKTLAFPINPSDI [YBR026C 53-66] |
| 1070 | VLLPLRLPEIPPKG [YFL036W 1323-1336] |
| 133 | TLIEYMGPAPPKGS [YLR178C 145-158] |
| 223 | TEGKYAPPSQPSMA [YDL195W 822-835] |
| 168 | TASQLQNPPPPPST [YGR086C 14-27] |
| 882 | TLFRFIVPFNPYFS [YLR198C 4-17] |
